The record followed here is patent US6111073A, “Tyrosine phosphorylated cleavage furrow-associated proteins (PSTPIPs)” (Genentech, Inc., priority 1998, dated 2000).

The subject of assay [1] is tyrosine phosphorylation of endogenous PSTPIP in Baf3 cells. In words: Tyrosine phosphorylation of endogenous PSTPIP in Baf3 cells (immunoprecipitation, anti-phosphotyrosine blot). The assay is classed as cell-based, murine. The method, then: Baf3 cells were Iysed in 1% Triton, 50 mM HEPES, 10% glycerol and 5 mM EDTA containing 1 μg/ml aprotinin, PMSF, leupeptin and pepstatin with 1 mM Sodium Vanadate and 10 mM lodoacetic acid. Cells were treated with 0.1 mM Pervanadate for 4 hours before Iysis. Immunoprecipitations were performed in the vanadate-containing Iysis buffer using 1 μg/ml anti-PSTPIP polyclonal antibody and 400 μg of Iysate protein at 4° C. overnight. Western blots were performed using 1 μg/ml affinity purified anti-PSTPIP or 1:5000 dilution of commercial 4G10 anti-phosphotyrosine monoclonal (Upstate Biotech). Signal was detected by HRPO-ECL reagents (Pierce). The C221 -S mutant was as previously described (Cheng et al., (1996) supra). The PTP HSCF D197 -A mutant was generated using PCR. Mutagenesis primer D197A.F ([…]) (SEQ ID NO:24), corresponding to nucleotide 591, and primer D197A.R ([…]) (SEQ ID NO:25) which corresponds to the stop codon, were used in PCR to generate a fragment that could be cut with Mscl and Xbal. pRK.HA.38 WT, a plasmid which encoded the wild type enzyme under the control of the cytomegalovirus promoter (Cheng et al., (1996) supra), was digested with Clal and Mscl and the resulting 600 bp fragment was ligated with the Mscl-Xbal PCR fragment into the Clal and Xbal sites of pRK.tkneo. […]

The target of assay [2] is T1, interaction between PTP HSCF and PSTPIP (Mus musculus, UniProt P97814).
T1 construct: The longest two hybrid clone was used to isolate a full length cDNA from the original Baf3 two hybrid library; made in house; host or cells: PSTPIP: in vitro transcribed/translated (Promega TnT rabbit reticulocyte system); GST-PTP HSCF fusion: E. coli DH5-alpha, pGEX-4T-2
T1 sequence (P97814 1-415): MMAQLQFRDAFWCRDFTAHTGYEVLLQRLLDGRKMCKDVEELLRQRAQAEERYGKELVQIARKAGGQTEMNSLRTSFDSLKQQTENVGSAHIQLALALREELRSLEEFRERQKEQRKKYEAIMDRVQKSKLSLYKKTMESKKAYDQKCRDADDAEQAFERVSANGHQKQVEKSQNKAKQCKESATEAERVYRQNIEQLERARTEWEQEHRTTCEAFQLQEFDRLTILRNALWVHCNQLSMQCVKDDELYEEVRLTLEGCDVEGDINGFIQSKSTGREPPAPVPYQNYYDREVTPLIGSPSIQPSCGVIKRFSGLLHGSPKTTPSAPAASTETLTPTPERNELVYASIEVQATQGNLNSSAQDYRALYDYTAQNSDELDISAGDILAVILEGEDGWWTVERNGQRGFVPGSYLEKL
In words: Peptide inhibition of in vitro binding: GST-PST-rich+CTH PTP HSCF precipitating in vitro translated PSTPIP. The conditions noted are these: FIG. 4D. Details: species or system murine. The method, then:
The binding was carried out according to the method of Wong and Johnson (Wong et al., J. Biol. Chem. 271(35):20981-20984 (1996)). Briefly, 1 μg of plasmid with either the PSTPIP protein or PTP HSCF under the control of the Sp6 promoter was in vitro transcribed/translated using the Promega TnT Rabbit Reticulocyte system. Samples were diluted in 50 mM HEPES, pH 7.2, 1% triton X 100, 10% glycerol, 100 mM NaCI, 5 mM EDTA and 2 μg/ml each of leupeptin, pepstatin, aprotinin, and PMSF. […] This was reacted for 1 hour at 4° C. and then the resin washed 6 times in HEPES/Triton binding buffer before SDS gel electrophoresis. The peptides were synthesized on an automated Milligen 9050 Peptide Synthesizer using standard solid phase chemistry with FMOC protected amino acids on a p-alkoxybenzyl alcohol resin. Dried peptides were re-suspended in the HEPES/Triton Binding buffer at a concentration of 10 mg/ml. Peptide inhibition was performed by adding the peptide first to the in vitro translation product and then the GST-fusion followed by the GSH-Sepharose. The binding/washing steps were as previously described. The peptides synthesized and the PTPs they were derived from were: […]

The target in assay [3] is in vitro transcribed and translated PSTPIP (murine). In words: peptide competition of the pull-down of in vitro translated PSTPIP by GST-PST-rich+CTH PTP HSCF.
Assay [4] addresses T2, in vitro transcribed and translated PSTPIP (murine).
T2 chain: T1 sequence (P97814 1-415)
Described as above.

Another assay has as its system PTP HSCF. In words: In vitro binding assay: GST fusion precipitation of in vitro translated PTP HSCF. The conditions noted are these: GST fusion protein ~1 microgram per ml or ~1.5 micromolar; compared with polyclonal anti-PTP HSCF antibody; FIG. 3. Here is the method:
The binding was carried out according to the method of Wong and Johnson (Wong et al., J. Biol. Chem. 271(35):20981-20984 (1996)). Briefly, 1 μg of plasmid with either the PSTPIP protein or PTP HSCF under the control of the Sp6 promoter was in vitro transcribed/translated using the Promega TnT Rabbit Reticulocyte system. Samples were diluted in 50 mM HEPES, pH 7.2, 1% triton X 100, 10% glycerol, 100 mM NaCI, 5 mM EDTA and 2 μg/ml each of leupeptin, pepstatin, aprotinin, and PMSF. […] This was reacted for 1 hour at 4° C. and then the resin washed 6 times in HEPES/Triton binding buffer before SDS gel electrophoresis. The peptides were synthesized on an automated Milligen 9050 Peptide Synthesizer using standard solid phase chemistry with FMOC protected amino acids on a p-alkoxybenzyl alcohol resin. Dried peptides were re-suspended in the HEPES/Triton Binding buffer at a concentration of 10 mg/ml. Peptide inhibition was performed by adding the peptide first to the in vitro translation product and then the GST-fusion followed by the GSH-Sepharose. The binding/washing steps were as previously described. The peptides synthesized and the PTPs they were derived from were:
In order to characterize the regions involved with the binding between PTP HSCF and PSTPIP, a rapid and direct in vitro binding assay was performed. […]

As for `[O]=[V]([O-])([O-])[O-]` [vanadate], the “tyrosine phosphorylation of endogenous PSTPIP” value in assay [1] (with tyrosine phosphatase inhibitor, FIG. 6) is given as “significantly enhanced”.
With GGVLRSISVPAPPTLPMADT [control peptide], the “ability to block the PTP HSCF-PSTPIP interaction” value in assay [2] is recorded as “completely unable to block the interaction”.
For PXXP-HSCF peptide (PTP HSCF 432-451), the concentration at which the peptide blocks the interaction (as low as) in assay [3] stood at 800 nM.
The molecule PXXP-PEP peptide (PTP PEP 782-800) gave a concentration at which the peptide blocks the interaction (as low as) in assay [3] of 800 nM.
The same measure, in the same setting: the figure for PXXP-PEST peptide (PTP PEST 761-780) is 800 nM.
Consider pervanadate, for which, in assay [1] (anti-phosphotyrosine blot, FIG. 6A), the “phosphotyrosine content of PSTPIP in the absence versus presence of the inhibitor” value is on record as “lower phosphotyrosine content”.
Turning to GGVLRSISVPAPPTLPMADT [PXXP-CONTROL peptide (PTP HSCF 334-353)], the binding result in assay [4] is “no binding”.

B1: GST PSTPIP: GST fusion protein containing full-length PSTPIP (amino acids 2-415) (protein)
chain: MAQLQFRDAFWCRDFTAHTGYEVLLQRLLDGRKMCKDVEELLRQRAQAEERYGKELVQIARKAGGQTEMNSLRTSFDSLKQQTENVGSAHIQLALALREELRSLEEFRERQKEQRKKYEAIMDRVQKSKLSLYKKTMESKKAYDQKCRDADDAEQAFERVSANGHQKQVEKSQNKAKQCKESATEAERVYRQNIEQLERARTEWEQEHRTTCEAFQLQEFDRLTILRNALWVHCNQLSMQCVKDDELYEEVRLTLEGCDVEGDINGFIQSKSTGREPPAPVPYQNYYDREVTPLIGSPSIQPSCGVIKRFSGLLHGSPKTTPSAPAASTETLTPTPERNELVYASIEVQATQGNLNSSAQDYRALYDYTAQNSDELDISAGDILAVILEGEDGWWTVERNGQRGFVPGSYLEKL
Take B1: the “efficiency of precipitating in vitro translated PTP HSCF” value with PTP HSCF was “more efficient at precipitating the phosphatase”.
